Here are results for 7 molecules from US20240269235A1 (Gilead, published 2024).

The target in experiment [1] is T1, trimeric murine IL-2 receptor (IL-2Rα, IL-2Rβ, and IL-2Rγ) on CTLL-2 cells (murine, UniProt P01590 22-268; P16297 27-539; P34902 23-369).
T1 sequence (looked up) 1: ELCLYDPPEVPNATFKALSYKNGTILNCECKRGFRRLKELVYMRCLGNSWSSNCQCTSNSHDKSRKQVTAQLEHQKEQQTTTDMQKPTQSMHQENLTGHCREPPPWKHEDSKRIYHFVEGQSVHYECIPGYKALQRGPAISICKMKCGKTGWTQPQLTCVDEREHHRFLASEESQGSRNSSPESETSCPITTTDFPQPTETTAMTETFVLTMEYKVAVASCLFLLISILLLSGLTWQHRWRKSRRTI
T1 sequence (looked up) 2: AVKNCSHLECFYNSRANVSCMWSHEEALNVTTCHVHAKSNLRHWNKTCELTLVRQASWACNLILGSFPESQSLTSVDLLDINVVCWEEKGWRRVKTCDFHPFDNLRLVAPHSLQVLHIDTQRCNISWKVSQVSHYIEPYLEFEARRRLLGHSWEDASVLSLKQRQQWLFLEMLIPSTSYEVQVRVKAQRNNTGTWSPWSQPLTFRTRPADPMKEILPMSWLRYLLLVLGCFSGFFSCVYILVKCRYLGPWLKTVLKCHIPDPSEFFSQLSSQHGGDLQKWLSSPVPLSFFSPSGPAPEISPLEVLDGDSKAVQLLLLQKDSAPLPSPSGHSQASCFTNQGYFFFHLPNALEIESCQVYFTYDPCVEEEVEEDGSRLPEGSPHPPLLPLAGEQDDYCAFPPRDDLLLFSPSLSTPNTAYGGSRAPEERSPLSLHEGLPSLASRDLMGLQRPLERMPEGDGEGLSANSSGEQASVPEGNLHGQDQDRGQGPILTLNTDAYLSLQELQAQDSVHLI
T1 sequence (looked up) 3: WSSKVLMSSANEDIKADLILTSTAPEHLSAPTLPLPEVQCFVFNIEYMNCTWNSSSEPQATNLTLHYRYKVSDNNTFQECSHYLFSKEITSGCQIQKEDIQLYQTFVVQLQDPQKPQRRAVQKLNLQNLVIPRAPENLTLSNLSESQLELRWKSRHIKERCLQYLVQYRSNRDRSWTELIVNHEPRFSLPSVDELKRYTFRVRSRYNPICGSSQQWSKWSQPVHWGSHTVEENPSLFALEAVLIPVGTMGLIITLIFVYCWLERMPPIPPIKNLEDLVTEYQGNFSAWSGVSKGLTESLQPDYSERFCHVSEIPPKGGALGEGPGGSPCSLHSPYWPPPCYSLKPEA
The experiment can be described thus: cell-based or functional assay.

The target in experiment [2] is T2, IL-2Rβγ heterodimer, custom biotinylated Fc fusion protein (human IL-2Rβ 27-240-Fc-FLAG / human IL-2Rγ … (human, site-specific biotinylation at the AviTag)).
T2 construct: Extracellular regions fused to IgG1 knob-in-hole Fc subunits with tags; also called IL-2 receptor βγ heterodimer; Fc-IL-2Rβγ
The experiment can be described thus: SPR (Biacore), CM4 chip, biotinylated receptor on neutravidin. On the procedure: Fc-IL-2 variant binding data was collected on a Biacore platform using a CM4 chip. Neutravidin was immobilized using standard amine coupling methods and used to capture biotinylated receptors. The source, preparation and immobilization of biotinylated IL-2Rα and IL-2Rβγ heterodimer was as described in Example 4. Proleukin was used as a comparator. Fc-IL-2 variants and Proleukin were injected at various concentrations over these surfaces. Kinetic data obtained from these injections was used to extract kₒₙ and koff to calculate KD (KD=Koff/kₒₙ).

T2 sequence (chain, as listed by the source limits assumed): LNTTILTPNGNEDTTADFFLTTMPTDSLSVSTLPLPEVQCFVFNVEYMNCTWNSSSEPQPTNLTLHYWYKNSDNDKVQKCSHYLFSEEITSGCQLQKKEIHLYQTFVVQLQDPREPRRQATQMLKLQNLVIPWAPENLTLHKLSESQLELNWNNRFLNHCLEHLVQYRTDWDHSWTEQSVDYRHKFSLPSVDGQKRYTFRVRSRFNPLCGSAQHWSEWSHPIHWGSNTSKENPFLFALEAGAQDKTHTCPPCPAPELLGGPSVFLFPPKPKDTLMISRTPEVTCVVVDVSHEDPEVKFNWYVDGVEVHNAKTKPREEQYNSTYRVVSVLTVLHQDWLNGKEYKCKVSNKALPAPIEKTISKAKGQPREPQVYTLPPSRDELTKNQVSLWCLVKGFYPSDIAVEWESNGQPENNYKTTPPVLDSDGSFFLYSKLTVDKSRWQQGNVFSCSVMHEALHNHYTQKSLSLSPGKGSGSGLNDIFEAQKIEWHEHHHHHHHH

B1: Fc-IL-2v heterodimer 97.46 (hIL-2v_Δ1-5_Y45G_E62A_C125S) (Fc fusion)
chain 1: ESKYGPPCPPCPAPEAAGGPSVFLFPPKPKDTLMISRTPEVTCVVVDVSQEDPEVQFNWYVDGVEVHNAKTKPREEQFNSTYRVVSVLTVLHQDWLNGKEYKCKVSNKGLPSSIEKTISKAKGQPREPQVYTLPPSQEEMTKNQVSLWCLVKGFYPSDIAVEWESNGQPENNYKTTPPVLDSDGSFFLYSRLTVDKSRWQEGNVFSCSVMHEALHNHYTQKSLSLSLGGGGGSGGGGSGGGGSGGGGSSTKKTQLQLEHLLLDLQMILNGINNYKNPKLTRMLTFKFGMPKKATELKHLQCLEEALKPLEEVLNLAQSKNFHLRPRDLISNINVIVLELKGSETTFMCEYADETATIVEFLNRWITFSQSIISTLT
chain 2: ESKYGPPCPPCPAPEAAGGPSVFLFPPKPKDTLMISRTPEVTCVVVDVSQEDPEVQFNWYVDGVEVHNAKTKPREEQFNSTYRVVSVLTVLHQDWLNGKEYKCKVSNKGLPSSIEKTISKAKGQPREPQVYTLPPSQEEMTKNQVSLSCAVKGFYPSDIAVEWESNGQPENNYKTTPPVLDSDGSFFLVSRLTVDKSRWQEGNVFSCSVMHEALHNRFTQKSLSLSLGK
notes: hIgG4 knob-in-hole Fc heterodimer, one IL-2v on the knob chain
One may read the Kd as the equilibrium constant for the complex coming apart. High values mean a looser complex, low ones a tighter complex. As for B1, the “STAT5 activation of CTLL-2 cells, EC50” value in experiment [1] stood at 3.4 nM. For the same molecule, the Kd in experiment [2] was 0.065 nM.

B2: Fc-IL-2v heterodimer 100.46 (hIL-2v_Δ1-5_F42A_E61A_C125S) (Fc fusion)
chain 1: ESKYGPPCPPCPAPEAAGGPSVFLFPPKPKDTLMISRTPEVTCVVVDVSQEDPEVQFNWYVDGVEVHNAKTKPREEQFNSTYRVVSVLTVLHQDWLNGKEYKCKVSNKGLPSSIEKTISKAKGQPREPQVYTLPPSQEEMTKNQVSLWCLVKGFYPSDIAVEWESNGQPENNYKTTPPVLDSDGSFFLYSRLTVDKSRWQEGNVFSCSVMHEALHNHYTQKSLSLSLGGGGGSGGGGSGGGGSGGGGSSTKKTQLQLEHLLLDLQMILNGINNYKNPKLTRMLTAKFYMPKKATELKHLQCLEAELKPLEEVLNLAQSKNFHLRPRDLISNINVIVLELKGSETTFMCEYADETATIVEFLNRWITFSQSIISTLT
chain 2: ESKYGPPCPPCPAPEAAGGPSVFLFPPKPKDTLMISRTPEVTCVVVDVSQEDPEVQFNWYVDGVEVHNAKTKPREEQFNSTYRVVSVLTVLHQDWLNGKEYKCKVSNKGLPSSIEKTISKAKGQPREPQVYTLPPSQEEMTKNQVSLSCAVKGFYPSDIAVEWESNGQPENNYKTTPPVLDSDGSFFLVSRLTVDKSRWQEGNVFSCSVMHEALHNRFTQKSLSLSLGK
notes: as for B1
In the case of B2, the “STAT5 activation of CTLL-2 cells, EC50” value in experiment [1] stood at 1.6 nM. The molecule further registered a Kd in experiment [2] of 0.061 nM.

B3: Fc-IL-2v heterodimer 106.46 (hIL-2v_Δ1-5_R38G_F42A_Y45G_C125S) (Fc fusion)
chain 1: ESKYGPPCPPCPAPEAAGGPSVFLFPPKPKDTLMISRTPEVTCVVVDVSQEDPEVQFNWYVDGVEVHNAKTKPREEQFNSTYRVVSVLTVLHQDWLNGKEYKCKVSNKGLPSSIEKTISKAKGQPREPQVYTLPPSQEEMTKNQVSLWCLVKGFYPSDIAVEWESNGQPENNYKTTPPVLDSDGSFFLYSRLTVDKSRWQEGNVFSCSVMHEALHNHYTQKSLSLSLGGGGGSGGGGSGGGGSGGGGSSTKKTQLQLEHLLLDLQMILNGINNYKNPKLTGMLTAKFGMPKKATELKHLQCLEEELKPLEEVLNLAQSKNFHLRPRDLISNINVIVLELKGSETTFMCEYADETATIVEFLNRWITFSQSIISTLT
chain 2: ESKYGPPCPPCPAPEAAGGPSVFLFPPKPKDTLMISRTPEVTCVVVDVSQEDPEVQFNWYVDGVEVHNAKTKPREEQFNSTYRVVSVLTVLHQDWLNGKEYKCKVSNKGLPSSIEKTISKAKGQPREPQVYTLPPSQEEMTKNQVSLSCAVKGFYPSDIAVEWESNGQPENNYKTTPPVLDSDGSFFLVSRLTVDKSRWQEGNVFSCSVMHEALHNRFTQKSLSLSLGK
notes: as for B1
On to B3, for which the “STAT5 activation of CTLL-2 cells, EC50” value in experiment [1] was determined as 19.6 nM. The same molecule yielded a Kd in experiment [2] of 0.06 nM.

B4: Fc-IL-2v heterodimer 101.46 (hIL-2v_Δ1-5_F42A_Y45G_C125S) (Fc fusion)
chain 1: ESKYGPPCPPCPAPEAAGGPSVFLFPPKPKDTLMISRTPEVTCVVVDVSQEDPEVQFNWYVDGVEVHNAKTKPREEQFNSTYRVVSVLTVLHQDWLNGKEYKCKVSNKGLPSSIEKTISKAKGQPREPQVYTLPPSQEEMTKNQVSLWCLVKGFYPSDIAVEWESNGQPENNYKTTPPVLDSDGSFFLYSRLTVDKSRWQEGNVFSCSVMHEALHNHYTQKSLSLSLGGGGGSGGGGSGGGGSGGGGSSTKKTQLQLEHLLLDLQMILNGINNYKNPKLTRMLTAKFGMPKKATELKHLQCLEEELKPLEEVLNLAQSKNFHLRPRDLISNINVIVLELKGSETTFMCEYADETATIVEFLNRWITFSQSIISTLT
chain 2: ESKYGPPCPPCPAPEAAGGPSVFLFPPKPKDTLMISRTPEVTCVVVDVSQEDPEVQFNWYVDGVEVHNAKTKPREEQFNSTYRVVSVLTVLHQDWLNGKEYKCKVSNKGLPSSIEKTISKAKGQPREPQVYTLPPSQEEMTKNQVSLSCAVKGFYPSDIAVEWESNGQPENNYKTTPPVLDSDGSFFLVSRLTVDKSRWQEGNVFSCSVMHEALHNRFTQKSLSLSLGK
notes: as for B1
Turning to B4, the “STAT5 activation of CTLL-2 cells, EC50” value in experiment [1] amounted to 7.7 nM. The molecule further showed a Kd in experiment [2] of 0.054 nM.

B5: Fc-IL-2v heterodimer 104.46 (hIL-2v_Δ1-5_R38G_F42A_C125S) (Fc fusion)
chain 1: ESKYGPPCPPCPAPEAAGGPSVFLFPPKPKDTLMISRTPEVTCVVVDVSQEDPEVQFNWYVDGVEVHNAKTKPREEQFNSTYRVVSVLTVLHQDWLNGKEYKCKVSNKGLPSSIEKTISKAKGQPREPQVYTLPPSQEEMTKNQVSLWCLVKGFYPSDIAVEWESNGQPENNYKTTPPVLDSDGSFFLYSRLTVDKSRWQEGNVFSCSVMHEALHNHYTQKSLSLSLGGGGGSGGGGSGGGGSGGGGSSTKKTQLQLEHLLLDLQMILNGINNYKNPKLTGMLTAKFYMPKKATELKHLQCLEEELKPLEEVLNLAQSKNFHLRPRDLISNINVIVLELKGSETTFMCEYADETATIVEFLNRWITFSQSIISTLT
chain 2: ESKYGPPCPPCPAPEAAGGPSVFLFPPKPKDTLMISRTPEVTCVVVDVSQEDPEVQFNWYVDGVEVHNAKTKPREEQFNSTYRVVSVLTVLHQDWLNGKEYKCKVSNKGLPSSIEKTISKAKGQPREPQVYTLPPSQEEMTKNQVSLSCAVKGFYPSDIAVEWESNGQPENNYKTTPPVLDSDGSFFLVSRLTVDKSRWQEGNVFSCSVMHEALHNRFTQKSLSLSLGK
notes: as for B1
In the case of B5, the “STAT5 activation of CTLL-2 cells, EC50” value in experiment [1] was determined as 1.4 nM. In experiment [2], this molecule returned an equilibrium dissociation constant (Kd) of 0.061 nM.

B6: Fc-IL-2v heterodimer 102.46 (hIL-2v_Δ1-5_Y45G_E61A_E62A_C125S) (Fc fusion)
chain 1: ESKYGPPCPPCPAPEAAGGPSVFLFPPKPKDTLMISRTPEVTCVVVDVSQEDPEVQFNWYVDGVEVHNAKTKPREEQFNSTYRVVSVLTVLHQDWLNGKEYKCKVSNKGLPSSIEKTISKAKGQPREPQVYTLPPSQEEMTKNQVSLWCLVKGFYPSDIAVEWESNGQPENNYKTTPPVLDSDGSFFLYSRLTVDKSRWQEGNVFSCSVMHEALHNHYTQKSLSLSLGGGGGSGGGGSGGGGSGGGGSSTKKTQLQLEHLLLDLQMILNGINNYKNPKLTRMLTFKFGMPKKATELKHLQCLEAALKPLEEVLNLAQSKNFHLRPRDLISNINVIVLELKGSETTFMCEYADETATIVEFLNRWITFSQSIISTLT
chain 2: ESKYGPPCPPCPAPEAAGGPSVFLFPPKPKDTLMISRTPEVTCVVVDVSQEDPEVQFNWYVDGVEVHNAKTKPREEQFNSTYRVVSVLTVLHQDWLNGKEYKCKVSNKGLPSSIEKTISKAKGQPREPQVYTLPPSQEEMTKNQVSLSCAVKGFYPSDIAVEWESNGQPENNYKTTPPVLDSDGSFFLVSRLTVDKSRWQEGNVFSCSVMHEALHNRFTQKSLSLSLGK
notes: as for B1
As for B6, in experiment [1], the “STAT5 activation of CTLL-2 cells, EC50” value came to 6.1 nM. This molecule showed a Kd in experiment [2] of 0.073 nM.

B7: Fc-IL-2v heterodimer 103.46 (hIL-2v_Δ1-5_E61A_E62A_C125S) (Fc fusion)
chain 1: ESKYGPPCPPCPAPEAAGGPSVFLFPPKPKDTLMISRTPEVTCVVVDVSQEDPEVQFNWYVDGVEVHNAKTKPREEQFNSTYRVVSVLTVLHQDWLNGKEYKCKVSNKGLPSSIEKTISKAKGQPREPQVYTLPPSQEEMTKNQVSLWCLVKGFYPSDIAVEWESNGQPENNYKTTPPVLDSDGSFFLYSRLTVDKSRWQEGNVFSCSVMHEALHNHYTQKSLSLSLGGGGGSGGGGSGGGGSGGGGSSTKKTQLQLEHLLLDLQMILNGINNYKNPKLTRMLTFKFYMPKKATELKHLQCLEAALKPLEEVLNLAQSKNFHLRPRDLISNINVIVLELKGSETTFMCEYADETATIVEFLNRWITFSQSIISTLT
chain 2: ESKYGPPCPPCPAPEAAGGPSVFLFPPKPKDTLMISRTPEVTCVVVDVSQEDPEVQFNWYVDGVEVHNAKTKPREEQFNSTYRVVSVLTVLHQDWLNGKEYKCKVSNKGLPSSIEKTISKAKGQPREPQVYTLPPSQEEMTKNQVSLSCAVKGFYPSDIAVEWESNGQPENNYKTTPPVLDSDGSFFLVSRLTVDKSRWQEGNVFSCSVMHEALHNRFTQKSLSLSLGK
notes: as for B1
Take B7: the “STAT5 activation of CTLL-2 cells, EC50” value in experiment [1] amounted to 2.7 nM. In experiment [2], this molecule returned an equilibrium dissociation constant (Kd) of 0.096 nM.
